Data reported in paper PMC4827055.

Biological target: human Toll-like receptor 5 (TLR5) expressed on HEK293 cells (human) (UniProt O60602)
Chain of UniProt O60602 (O60602 21-858): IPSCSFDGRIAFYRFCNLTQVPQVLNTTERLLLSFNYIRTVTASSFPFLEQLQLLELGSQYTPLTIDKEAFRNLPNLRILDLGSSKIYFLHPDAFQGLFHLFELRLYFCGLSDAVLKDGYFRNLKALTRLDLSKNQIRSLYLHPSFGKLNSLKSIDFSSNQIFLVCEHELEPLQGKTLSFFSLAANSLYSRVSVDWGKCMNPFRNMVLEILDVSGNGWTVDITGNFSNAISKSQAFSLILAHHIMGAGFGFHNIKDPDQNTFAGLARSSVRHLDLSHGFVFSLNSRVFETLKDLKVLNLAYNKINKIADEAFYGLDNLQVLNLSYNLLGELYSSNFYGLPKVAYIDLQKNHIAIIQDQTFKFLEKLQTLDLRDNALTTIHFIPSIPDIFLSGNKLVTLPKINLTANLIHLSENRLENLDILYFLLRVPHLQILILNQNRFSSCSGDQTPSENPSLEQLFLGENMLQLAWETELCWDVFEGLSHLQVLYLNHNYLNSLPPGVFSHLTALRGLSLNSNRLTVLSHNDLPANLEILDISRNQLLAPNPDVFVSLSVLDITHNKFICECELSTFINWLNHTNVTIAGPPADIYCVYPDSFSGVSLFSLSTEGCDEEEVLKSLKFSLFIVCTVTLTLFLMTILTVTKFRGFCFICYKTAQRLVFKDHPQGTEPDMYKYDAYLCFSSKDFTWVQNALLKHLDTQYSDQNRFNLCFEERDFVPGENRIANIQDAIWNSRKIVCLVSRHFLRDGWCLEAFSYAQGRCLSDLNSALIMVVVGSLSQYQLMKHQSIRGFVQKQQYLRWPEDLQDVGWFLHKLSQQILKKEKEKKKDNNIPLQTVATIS

Row | Substance | EC50 (half maximal induction) of NF-κB luciferase reporter in HEK293/hTLR5 cells, 24 hr stimulation
1 | recombinant flagellin (rFliC) from Salmonella enterica serovar Typhimurium (from UniProt P06179 1-495) (natural protein) | 0.0067 nM
2 | recombinant flagellin-E7m fusion protein rFliCE7m (E7m fused at the C-terminus of flagellin) (from UniProt P06179 1-495) | 0.0237 nM
